This is an account of results in US20220380441A1 (VIR BIOTECHNOLOGY, published 2022).

For test [1], the target named is T1, Human complement component C1q (human, UniProt P02745 23-245; P02746 28-253; P02747 29-245).
T1 construct: also called human C1q; human complement protein C1q
The experiment in a line: BLI (Octet RED96), IgG captured on anti-human Fab (CH1) sensors, C1q at 3 µg/ml.
Description: (§1) IgG-loaded sensors were then exposed for 4 minutes to a solution of kinetics buffer (pH 7.1) containing 3 μg/ml of purified human C1q (left part of the plot), followed by a dissociation step in the same buffer for additional 4 minutes (right part of the plot). Association and dissociation profiles were measured in real time as change in the interference pattern using an Octet RED96 (FortéBio).
(§2) IgG-loaded sensors were then exposed for 4 minutes to a solution of kinetics buffer (pH 7.1) containing 3 μg/ml of purified human C1q (left part of the plot), followed by a dissociation step in the same buffer for 4 additional minutes (right part of the plot). Association and dissociation profiles were measured in real time as change in the interference pattern using an Octet RED96 (FortéBio).

The target in test [2] is T2, Recombinant human FcγRIIIa (V158), His-tagged (human, UniProt P08637 17-208).
T2 construct: also called FcγRIIIa allele V158; not shown: C-terminal 6-His tag
The experiment in a line: BLI (Octet RED96), His-tagged FcγR on anti-penta-His sensors, mAb at 2 µg/ml cross-linked with anti-human F(ab')2.

In test [3] the target is T3, Recombinant human FcγRIIIa (F158), His-tagged (human, UniProt P08637 17-208).
T3 construct: also called FcγRIIIa allele F158; not shown: C-terminal 6-His tag
The test is described as above.

Test [4] addresses T4, Recombinant human FcγRIIa (H131), His-tagged (human, UniProt P12318 34-218).
T4 construct: also called FcγRIIa allele H131; not shown: C-terminal 6-His tag
T4 sequence (looked up): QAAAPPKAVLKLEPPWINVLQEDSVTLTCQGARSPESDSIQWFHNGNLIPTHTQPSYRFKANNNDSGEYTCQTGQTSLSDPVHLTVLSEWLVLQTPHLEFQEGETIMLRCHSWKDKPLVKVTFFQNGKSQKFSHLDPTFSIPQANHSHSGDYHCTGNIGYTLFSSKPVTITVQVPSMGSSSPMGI
Described as above.

Test [5] has as its target T5, Recombinant human FcγRIIb, His-tagged (human, UniProt P31994 43-217).
T5 construct: not shown: C-terminal 6-His tag
T5 sequence (looked up): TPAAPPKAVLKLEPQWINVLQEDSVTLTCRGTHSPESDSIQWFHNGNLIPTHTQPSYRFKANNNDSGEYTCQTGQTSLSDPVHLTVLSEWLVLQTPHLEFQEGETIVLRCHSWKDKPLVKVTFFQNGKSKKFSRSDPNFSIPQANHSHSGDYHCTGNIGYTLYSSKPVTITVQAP
The test is described as above.

Test [6] addresses T6, Recombinant human FcγRIIa (R131), His-tagged (human, UniProt P12318 34-218).
T6 construct: also called FcγRIIa allele R131
T6 sequence (looked up): T4 sequence (looked up) with H134R
Described as above.
Description: His-tagged human FcγRs ((A) FcγRIIa allele H131; (B) FcγRIIa allele R131; (C) FcγRIIIa allele F158; (D) FcγRIIIa allele V158; (E) FcγRIIb) at 2 μg/ml were captured onto anti-penta-His sensors for 6 minutes. FcγRs-loaded sensors were then exposed for 5 minutes to a solution of kinetics buffer (pH 7.1) containing 2 μg/ml of each mAb (left part of the plot) in the presence 1 μg/ml of affiniPure F(ab′)₂ Fragment Goat Anti-Human IgG, F(ab′)₂ fragment specific (to cross-link human mAbs through the Fab fragment), followed by a dissociation step in the same buffer for additional 4 minutes (right part of the plot). Association and dissociation profiles were measured in real time as change in the interference pattern using an Octet RED96 (FortéBio).
Briefly, His-tagged human FcγRs (FcγRIIa allele H131, FcγRIIa allele R131, FcγRIIAa allele F158, FcγRIIIa allele V158 and FcγRIIb) at 2 μg/ml were captured onto anti-penta-His sensors for 6 minutes. FcγR-loaded sensors were then exposed for 4 minutes to a solution of kinetics buffer (pH 7.1) containing 2 μg/ml of each mAb in the presence 1 μg/ml of affiniPure F(ab′)2 Fragment Goat Anti-Human IgG, F(ab′)2 fragment-specific (to cross-link human mAbs through the Fab fragment), followed by a dissociation step in the same buffer for 4 additional minutes (right part of the plot). Association and dissociation profiles were measured in real time as change in the interference pattern using an Octet RED96 (FortéBio).

Test [7] concerns the target T1, Human complement component C1q. The experiment in a line: BLI (Octet RED96), IgG captured on anti-human Fab (CH1) sensors.
Description: as §1, §2

Changes are numbered by the printed parent chain.

T1 sequence (P02745 23-245 limits assumed, chain 1 of 3): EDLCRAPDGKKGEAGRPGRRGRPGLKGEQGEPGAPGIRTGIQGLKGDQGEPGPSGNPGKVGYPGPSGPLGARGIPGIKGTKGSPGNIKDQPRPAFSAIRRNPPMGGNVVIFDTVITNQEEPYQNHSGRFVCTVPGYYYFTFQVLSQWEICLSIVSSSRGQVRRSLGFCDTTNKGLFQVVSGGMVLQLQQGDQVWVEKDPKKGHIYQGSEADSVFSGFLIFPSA
T1 sequence (P02746 28-253 limits assumed, chain 2 of 3): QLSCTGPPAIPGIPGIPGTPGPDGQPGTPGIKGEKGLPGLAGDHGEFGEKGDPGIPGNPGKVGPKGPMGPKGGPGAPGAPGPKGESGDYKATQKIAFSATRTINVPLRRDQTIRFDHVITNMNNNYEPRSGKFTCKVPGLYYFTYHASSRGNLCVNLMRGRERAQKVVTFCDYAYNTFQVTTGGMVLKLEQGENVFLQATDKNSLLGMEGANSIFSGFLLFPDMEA
T1 sequence (P02747 29-245 limits assumed, chain 3 of 3): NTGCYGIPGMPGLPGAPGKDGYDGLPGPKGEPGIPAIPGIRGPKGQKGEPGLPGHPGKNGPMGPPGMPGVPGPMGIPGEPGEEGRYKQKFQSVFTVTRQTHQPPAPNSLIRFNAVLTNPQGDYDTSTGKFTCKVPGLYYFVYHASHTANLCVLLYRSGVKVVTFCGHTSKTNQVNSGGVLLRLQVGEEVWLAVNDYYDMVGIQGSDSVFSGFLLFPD
T2 sequence (P08637 17-208 F176V limits assumed): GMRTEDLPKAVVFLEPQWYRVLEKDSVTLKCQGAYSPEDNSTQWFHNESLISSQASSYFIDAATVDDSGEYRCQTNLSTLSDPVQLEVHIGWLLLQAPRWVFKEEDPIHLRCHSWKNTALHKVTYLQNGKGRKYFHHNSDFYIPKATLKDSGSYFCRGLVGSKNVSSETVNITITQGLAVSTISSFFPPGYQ
T3 sequence (P08637 17-208 limits assumed): as the sequence (P08637 17-208 F176V limits assumed) above, with V160F counted along it

B1: HBC34-V35-MLNS (antibody, human IgG1, lambda)
heavy: not shown
light: SYELTQPPSVSVSPGQTVSIPCSGDKLGNKNVAWFQHKPGQSPVLVIYEVKYRPSGIPERFSGSNSGNTATLTISGTQAMDEAAYFCQTFDSTTVVFGGGTRLTVLGQPKAAPSVTLFPPSSEELQANKATLVCLISDFYPGAVTVAWKADSSPVKAGVETTTPSKQSNNKYAASSYLSLTPEQWKSHRSYSCQVTHEGSTVEKTVAPTECS
For B1, the binding result in test [1], in test [2], in test [3], in test [4], in test [5] and in test [6] was “binds” in each case.

B2: HBC34-V35-MLNS-GAALIE (antibody, human IgG1, lambda)
heavy: ELQLVESGGGWVQPGGSQRLSCAASGRIFRSFYMSWVRQAPGKGLEWVATINQDGSEKLYVDSVKGRFTISRDNAKNSLFLQMNNLRVEDTAVYYCAAWSGNSGGMDVWGQGTTVSVSSASTKGPSVFPLAPSSKSTSGGTAALGCLVKDYFPEPVTVSWNSGALTSGVHTFPAVLQSSGLYSLSSVVTVPSSSLGTQTYICNVNHKPSNTKVDKKVEPKSCDKTHTCPPCPAPELLAGPSVFLFPPKPKDTLMISRTPEVTCVVVDVSHEDPEVKFNWYVDGVEVHNAKTKPREEQYNSTYRVVSVLTVLHQDWLNGKEYKCKVSNKALPLPEEKTISKAKGQPREPQVYTLPPSRDELTKNQVSLTCLVKGFYPSDIAVEWESNGQPENNYKTTPPVLDSDGSFFLYSKLTVDKSRWQQGNVFSCSVLHEALHSHYTQKSLSLSPGK
light: B1 light
For B2, the binding result in test [7] is listed as “no binding (tested: 3 µg/ml of purified human C1q)”; in test [2], “binds”; in test [3], “binds”; in test [4], “binds”; in test [6], “binds”.
